Assay: immunofluorescence in HEK293 cells (data not shown)
Conditions: glycan lost; control: wild type

B1: ABCC6: N15D (protein)
parent chain: MAAPAEPCAGQGVWNQTEPEPAATSLLSLCFLRTAGVWVPPMYLWVLGPIYLLFIHHHGRGYLRMSPLFKAKMVLGFALIVLCTSSVAVALWKIQQGTPEAPEFLIHPTVWLTTMSFAVFLIHTERKKGVQSSGVLFGYWLLCFVLPATNAAQQASGAGFQSDPVRHLSTYLCLSLVVAQFVLSCLADQPPFFPEDPQQSNPCPETGAAFPSKATFWWVSGLVWRGYRRPLRPKDLWSLGRENSSEELVSRLEKEWMRNRSAARRHNKAIAFKRKGGSGMKAPETEPFLRQEGSQWRPLLKAIWQVFHSTFLLGTLSLIISDVFRFTVPKLLSLFLEFIGDPKPPAWKGYLLAVLMFLSACLQTLFEQQNMYRLKVLQMRLRSAITGLVYRKVLALSSGSRKASAVGDVVNLVSVDVQRLTESVLYLNGLWLPLVWIVVCFVYLWQLLGPSALTAIAVFLSLLPLNFFISKKRNHHQEEQMRQKDSRARLTSSILRNSKTIKFHGWEGAFLDRVLGIRGQELGALRTSGLLFSVSLVSFQVSTFLVALVVFAVHTLVAENAMNAEKAFVTLTVLNILNKAQAFLPFSIHSLVQARVSFDRLVTFLCLEEVDPGVVDSSSSGSAAGKDCITIHSATFAWSQESPPCLHRINLTVPQGCLLAVVGPVGAGKSSLLSALLGELSKVEGFVSIEGAVAYVPQEAWVQNTSVVENVCFGQELDPPWLERVLEACALQPDVDSFPEGIHTSIGEQGMNLSGGQKQRLSLARAVYRKAAVYLLDDPLAALDAHVGQHVFNQVIGPGGLLQGTTRILVTHALHILPQADWIIVLANGAIAEMGSYQELLQRKGALMCLLDQARQPGDRGEGETEPGTSTKDPRGTSAGRRPELRRERSIKSVPEKDRTTSEAQTEVPLDDPDRAGWPAGKDSIQYGRVKATVHLAYLRAVGTPLCLYALFLFLCQQVASFCRGYWLSLWADDPAVGGQQTQAALRGGIFGLLGCLQAIGLFASMAAVLLGGARASRLLFQRLLWDVVRSPISFFERTPIGHLLNRFSKETDTVDVDIPDKLRSLLMYAFGLLEVSLVVAVATPLATVAILPLFLLYAGFQSLYVVSSCQLRRLESASYSSVCSHMAETFQGSTVVRAFRTQAPFVAQNNARVDESQRISFPRLVADRWLAANVELLGNGLVFAAATCAVLSKAHLSAGLVGFSVSAALQVTQTLQWVVRNWTDLENSIVSVERMQDYAWTPKEAPWRLPTCAAQPPWPQGGQIEFRDFGLRYRPELPLAVQGVSFKIHAGEKVGIVGRTGAGKSSLASGLLRLQEAAEGGIWIDGVPIAHVGLHTLRSRISIIPQDPILFPGSLRMNLDLLQEHSDEAIWAALETVQLKALVASLPGQLQYKCADRGEDLSVGQKQLLCLARALLRKTQILILDEATAAVDPGTELQMQAMLGSWFAQCTVLLIAHRLRSVMDCARVLVMDKGQVAESGSPAQLLAQKGLFYRLAQESGLV
  localisation_or_trafficking: no change

Source: PMC4026322
